The results in this text go back to US20220177605A1 (University of Washington, published 2022).

Experiment [1] deals with T1, CA-14 bound to cannabidiol (CA-14-CBD complex) (non-covalently bound cannabidiol (CBD); AviTag biotinylated by BirA where immobilised (ELISA)).
T1 construct: Same polypeptide as m1, pre-equilibrated with the small molecule cannabidiol; also called CBD-CA-14 complex; not shown: C-terminal AviTag and His tag
As to the kind of experiment: BLI (Octet RED96), biotinylated DB on streptavidin sensor, 1 uM CA-14 pre-equilibrated with CBD. The source says: (§1) With the purified DB nanobodies in hand, we first sought to determine their binding affinities to the CA-14-CBD. CBD might directly bind to selected dimerization binders, which can affect the affinity measurement. To rule out this possibility, the four nanobodies were biotinylated (FIG. 7c) and immobilized on streptavidin biosensors, and the interaction with CBD was detected by BL1. Only minimal binding between CBD and the dimerization binders was detected (data not shown). Moreover, the binding-dissociation dynamics of the CA-14-CBD complex can also affect the measurement of dimerization binder affinities. To address this, the affinity was measured by a BLI assay in which the biosensor-immobilized dimerization binders were interacted with CA-14 pre-equilibrated with varied concentrations of CBD (FIG. 9a). The concentrations of the CA-14-CBD complex in equilibrium were calculated based on input CA-14 and CBD concentrations. The CA-14-CBD complex concentration was approximated to be constant because only a minimal fraction of the complex bound to the biosensor tips during the BLI assay. It was confirmed that CA-14 only interacts with the dimerization binders in the presence of CBD (FIG. 3a).
The nanobody binding kinetics was analyzed using an Octet™ RED96 system (ForteBio) and Streptavidin (SA) or Super Streptavidin (SSA) biosensors. For the anchor-binder analysis, 200 nM biotinylated anchor binders were immobilized on SSA biosensors with a binding assay buffer (1×PBS, pH 7.4, 0.05% Tween 20, 0.2% BSA, 3% methanol; Note: because CBD and THC were dissolved in methanol to make stock solutions, 3% methanol was added to the buffer to fairly compare samples and controls). Serial dilutions of CBD and THC were used for the anchor binder assays. Dissociation constants (KDS) of anchor binder-ligand interactions were calculated based on a steady-state analysis using Octet™ RED96 data analysis software.
A general note: Biolayer interferometry detects binding as a change in optical thickness at a sensor tip.

In experiment [2] the target is T1, CA-14 bound to cannabidiol (CA-14-CBD …). As to the kind of experiment: BLI; biotinylated DB-18 on streptavidin biosensors, analyte CA-14 pre-equilibrated with CBD; value printed in the scheme of ternary complex formation.
Text: as §1, with “It was confirmed that CA-14 only interacts with the dimerization binders in the presence of CBD (FIG. 3a).” left out
The nanobody binding kinetics was analyzed using an Octet™ RED96 system (ForteBio) and Streptavidin (SA) or Super Streptavidin (SSA) biosensors. […] Dissociation constants (KDS) of anchor binder-ligand interactions were calculated based on a steady-state analysis using Octet™ RED96 data analysis software.

B1: dimerization binder DB-11 (VHH)
VHH: EVQLQASGGGFVQPGGSLRLSCAASGTTSDNDTMGWFRQAPGKEREFVSAISWNGGRDEYYADSVKGRFTISRDNSKNTVYLQMNSLRAEDTATYYCAYQDNRSWQEYWGQGTQVTVSS
modifications: AviTag biotinylated by BirA (BLI)
notes: Purified, tagged and biotinylated in BLI; not shown: C-terminal AviTag and His tag (purified form)
What is called Kd is the equilibrium constant for the complex coming apart. High values mean a looser complex, low ones a tighter complex. For orientation: koff means a measure of how fast the partners let go of each other. Lower therefore signals a long-lived complex. What is called kon is a measure of how fast the partners come together. Higher therefore signals faster complex formation. Consider B1, for which, in experiment [1], the affinity, expressed as Kd, was 1380 nM; the off-rate constant (koff) is 0.084 s⁻¹; the on-rate (kon) is 61000 M⁻¹ s⁻¹.

B2: dimerization binder DB-18 (VHH)
VHH: EVQLQASGGGFVQPGGSLRLSCAASGGYSRADDMGWFRQAPGKEREFVSAISFGETDSFYYADSVKGRFTISRDNSKNTVYLQMNSLRAEDTATYYCAYHNYTNMFEYWGQGTQVTVSS
modifications: AviTag biotinylated by BirA (BLI)
notes: Purified and tagged in BLI (biotinylated) and SEC; also called 1DB-18; not shown: C-terminal AviTag and His tag (purified form)
As to B2, in experiment [1], the affinity, expressed as Kd, was 553 nM; the off-rate constant (koff) stood at 0.0227 s⁻¹; the on-rate (kon) stood at 41000 M⁻¹ s⁻¹. The same molecule yielded a dissociation constant (Kd) in experiment [2] of 553 nM.

B3: dimerization binder DB-6 (VHH)
VHH: EVQLQASGGGFVQPGGSLRLSCAASGRFSWGEEMGWFRQAPGKEREFVSAISWAATPWQYYADSVKGRFTISRDNSKNTVYLQMNSLRAEDTATYYCADEWHIGHVSYWGQGTQVTVSS
modifications: AviTag biotinylated by BirA (BLI)
notes: as for B1
In experiment [1], B3 came in with a Kd of 19000 nM, an off-rate constant (koff) of 0.182 s⁻¹ and a kon of 9600 M⁻¹ s⁻¹.

B4: dimerization binder DB-21 (VHH)
VHH: EVQLQASGGGFVQPGGSLRLSCAASGTTYGQTNMGWFRQAPGKEREFVSAISGLQGRDLYYADSVKGRFTISRDNSKNTVYLQMNSLRAEDTATYYCAFHDFLRMWEYWGQGTQVTVSS
modifications: AviTag biotinylated by BirA (BLI)
notes: Purified and tagged in BLI (biotinylated) and SEC; the form used in the sandwich ELISA-like assay is not clearly stated (same id used for all); not shown: C-terminal AviTag and His tag (purified form)
In experiment [1], B4 came in with a Kd of 56.4 nM, a koff of 0.000617 s⁻¹ and a kon of 11000 M⁻¹ s⁻¹.
